Test [1] addresses cGAS-pMag (pMag fused to the C-terminus of full-length cGAS) (UniProt Q8N884). In words: dcFCCS.
The target of test [2] is Cyclic GMP-AMP synthase (cGAS), full-length (amino acids 1-522) (UniProt Q8N884 1-522). In words: dcFCCS.

As for “nMagHigh1-ORF9 (nMagHigh1 fused to the N-terminus of VZV-ORF9)”, in test [1], the fold increase of the proportion forming heterodimer under blue light was found to be 5 fold.
On the same count and under the same terms, the result for “nMagHigh1-ORF52 (nMagHigh1 fused to the N-terminus of KSHV-ORF52)” reads 5 fold.
Same read-out and setting: the value for “nMagHigh1-VP22 (nMagHigh1 fused to the N-terminus of HSV1-VP22)” was 5 fold.

B1: Herpes simplex virus type 1 VP22 (HSV1-VP22) (natural protein)
chain: MTSRRSVKSGPREVPRDEYEDLYYTPSSGMASPDSPPDTSRRGALQTRSRQRGEVRFVQYDESDYALYGGSSSEDDEHPEVPRTRRPVSGAVLSGPGPARAPPPPAGSGGAGRTPTTAPRAPRTQRVATKAPAAPAAETTRGRKSAQPESAALPDAPASTAPTRSKTPAQGLARKLHFSTAPPNPDAPWTPRVAGFNKRVFCAAVGRLAAMHARMAAVQLWDMSRPRTDEDLNELLGITTIRVTVCEGKNLLQRANELVNPDVVQDVDAATATRGRSAASRPTERPRAPARSASRPRRPVE
modifications: AF488 NHS ester label
Usually Kd stands for the constant that tells how readily two partners part at equilibrium. The molecule B1 displayed a Kd in test [2] of about 2000 nM.

B2: Varicella-Zoster virus ORF9 (VZV-ORF9) (natural protein)
chain: MASSDGDRLCRSNAVRRKTTPSYSGQYRTARRSVVVGPPDDSDDSLGYITTVGADSPSPVYADLYFEHKNTTPRVHQPNDSSGSEDDFEDIDEVVAAFREARLRHELVEDAVYENPLSVEKPSRSFTKNAAVKPKLEDSPKRAPPGAGAIASGRPISFSTAPKTATSSWCGPTPSYNKRVFCEAVRRVAAMQAQKAAEAAWNSNPPRNNAELDRLLTGAVIRITVHEGLNLIQAANEADLGEGASVSKRGHNRKTGDLQGGMGNEPMYAQVRKPKSRTDTQTTGRITNRSRARSASRTDTRK
modifications: AF488 NHS ester label
On to B2, for which the Kd in test [2] was about 2000 nM.

(Values after publication PMC11965557 (Communications Biology, 2025).)
